This is an account of results in patent US20170327596A1.

In experiment [1] the target is pHuD peptide presented by HLA-A2 on T2 cells (human). As to the kind of experiment: cell-based or functional assay.
Experiment [2] deals with HLA/pHuD complex (HLA-A0201 with the modified peptide pHuD), HLA/peptide complex used in surface plasmon resonance (human). As to the kind of experiment: surface plasmon resonance, soluble TCR and HLA/peptide complex.
The target in experiment [3] is HLA/pTax complex (HLA-A0201 with the pTax peptide of HTLV-1 Tax), HLA/peptide complex used in surface plasmon resonance (human). The description is as above.

With “Tax-TCR expressed on transduced Jurkat cells or primary human T cells (pMP71 retroviral construct)”, in experiment [1], the kinetic of CD107 upregulation was 4 h and the peptide needed to trigger a CD107 response came out at 10 fold.

In general, Kd refers to the constant that tells how readily two partners part at equilibrium. A higher Kd goes with lower affinity. “wild type Tax-TCR, soluble TCR molecule (HLA-A0201-restricted TCR specific for the pTax peptide of HTLV-1 Tax)” gave a Kd in experiment [2] of 123 µM. In experiment [3], this substance yielded a Kd of 1.8 µM and a half-life t1/2 of 9.3 s.
